# Read-outs that look alike come from different tables or passages of the source.
# T1: FGFR4 (Homo sapiens, UniProt P22455)
# T1 construct: Fc-FGFR4 protein (human ectodomain) was immobilized; purchased R&D Systems 685FR050
# T1 sequence (P22455 22-369 limits assumed): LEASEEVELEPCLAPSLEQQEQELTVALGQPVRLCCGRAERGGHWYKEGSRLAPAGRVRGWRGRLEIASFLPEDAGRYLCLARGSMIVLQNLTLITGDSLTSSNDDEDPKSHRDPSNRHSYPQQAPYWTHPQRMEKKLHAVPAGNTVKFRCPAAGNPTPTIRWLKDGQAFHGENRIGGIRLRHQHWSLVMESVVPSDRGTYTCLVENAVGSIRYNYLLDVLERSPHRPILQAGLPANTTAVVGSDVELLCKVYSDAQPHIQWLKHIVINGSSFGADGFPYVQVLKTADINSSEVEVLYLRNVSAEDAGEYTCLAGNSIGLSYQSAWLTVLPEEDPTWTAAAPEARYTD
# T2: FGF21 (Homo sapiens, UniProt Q9NSA1)
# T2 construct: purchased R&D Systems 2539FG025/CF
# T2 sequence (Q9NSA1 29-209): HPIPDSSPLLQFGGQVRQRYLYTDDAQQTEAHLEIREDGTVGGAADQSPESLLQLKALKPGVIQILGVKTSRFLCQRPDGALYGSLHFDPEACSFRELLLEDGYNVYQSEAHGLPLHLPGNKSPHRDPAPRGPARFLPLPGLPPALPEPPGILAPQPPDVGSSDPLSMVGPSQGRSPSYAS
# B1: FGF23: recombinant fibroblast growth factor 23 protein from R&D Systems (protein)
# chain: YPDTSPLLGSNWGSLTHLYTATARTSYHLQIHRDGHVDGTPHQTIYSALMITSEDAGSVVITGAMTRRFLCMDLHGNIFGSLHFSPENCKFRQWTLENGYDVYLSQKHHYLVSLGRAKRIFQPGTNPPPFSQFLARRNEVPLLHFYTVRPRRHTRSAEDPPERDPLNVLKPRPRATPVPVSCSRELPSAEEGGPAASDPLGVLRRGRGDARGGAGGADRCRPFPRFV
# B2: sKL: recombinant soluble α-klotho ectodomain, mouse aa 35-982 and human aa 34-981, FLAG- or Strep/His-tagged, purified from HEK293 cells (protein)
# chain: EPGDGAQTWARFSRPPAPEAAGLFQGTFPDGFLWAVGSAAYQTEGGWQQHGKGASIWDTFTHHPLAPPGDSRNASLPLGAPSPLQPATGDVASDSYNNVFRDTEALRELGVTHYRFSISWARVLPNGSAGVPNREGLRYYRRLLERLRELGVQPVVTLYHWDLPQRLQDAYGGWANRALADHFRDYAELCFRHFGGQVKYWITIDNPYVVAWHGYATGRLAPGIRGSPRLGYLVAHNLLLAHAKVWHLYNTSFRPTQGGQVSIALSSHWINPRRMTDHSIKECQKSLDFVLGWFAKPVFIDGDYPESMKNNLSSILPDFTESEKKFIKGTADFFALCFGPTLSFQLLDPHMKFRQLESPNLRQLLSWIDLEFNHPQIFIVENGWFVSGTTKRDDAKYMYYLKKFIMETLKAIKLDGVDVIGYTAWSLMDGFEWHRGYSIRRGLFYVDFLSQDKMLLPKSSALFYQKLIEKNGFPPLPENQPLEGTFPCDFAWGVVDNYIQVDTTLSQFTDLNVYLWDVHHSKRLIKVDGVVTKKRKSYCVDFAAIQPQIALLQEMHVTHFRFSLDWALILPLGNQSQVNHTILQYYRCMASELVRVNITPVVALWQPMAPNQGLPRLLARQGAWENPYTALAFAEYARLCFQELGHHVKLWITMNEPYTRNMTYSAGHNLLKAHALAWHVYNEKFRHAQNGKISIALQADWIEPACPFSQKDKEVAERVLEFDIGWLAEPIFGSGDYPWVMRDWLNQRNNFLLPYFTEDEKKLIQGTFDFLALSHYTTILVDSEKEDPIKYNDYLEVQEMTDITWLNSPSQVAVVPWGLRKVLNWLKFKYGDLPMYIISNGIDDGLHAEDDQLRVYYMQNYINEALKAHILDGINLCGYFAYSFNDRTAPRFGLYRYAADQFEPKASMKHYRKIIDSNGFPGPETLERFCPEEFTVCTECSFFHTRKS
# modifications: left off: small tags and cut ends
# notes: recombinant soluble α-klotho ectodomain, mouse aa 35-982 and human aa 34-981, FLAG- or Strep/His-tagged, purified from HEK293 cells
# Assays:
# [1] = target: T1, FGFR4; experiment: Surface plasmon resonance, FGFR4 ectodomain immobilized on chip; assay type: binding; details: SPR
# Description: For the direct quantitative analysis of label-free molecular interactions in real time, surface plasmon resonance studies were conducted using BIAcore T200 and T200 evaluation software (28975001, Cytiva). Sensor SA (BR100398) and CMS chips (BR100399) were from Cytiva. For the preparation of heparin chips, heparin (2 mg) and amine-PEG3-Biotin (2 mg, 21347, Pierce) were dissolved in 200 μl of H2O and 10 mg of NaCNBH3 was added. The reaction mixture was heated at 70° C. for 24 hours; an additional 10 mg of NaCNBH3 was added; and the reaction was heated at 70° C. for another 24 hours. After cooling to room temperature, the mixture was desalted with the spin column (3000 MWCO). Biotinylated heparin was collected, freeze dried, and used for chip preparation. Biotinylated heparin was immobilized to streptavidin chips according to the manufacturer's protocol. In brief, 20 μl of biotinylated heparin solution (0.1 mg/ml) in HBS-P running buffer (0.01 M N-2-hydroxyethylpiperazine-N′-2-ethanesulfonic acid, 0.15 M NaCl, 0.005% surfactant P20 [pH7.4]; BR100368, Cytiva) was injected over flow cell 2 of the streptavidin chip at a flow rate of 10 μl/min. The successful immobilization of heparin was confirmed by the observation of an approximately 200-resonance unit increase in the sensor chip. The control flow cell (flow cell 1) was prepared by 1-minute injection with saturated biotin. For the preparation of FGFR4 chips, Fc-FGFR4 protein (human ectodomain) was immobilized on research grade CMS chips according to the standard amine coupling protocol. Briefly, carboxymethyl groups on the CMS chip surface were first activated using an injection pulse of […] of an equimolar mix of N-ethyl-N-(dimethylaminopropyl) carbodiimide and N-hydroxysuccinimide (final concentration 0.05 M, mixed immediately before injection). After activation, FGFR4 was diluted to […] in 100 mM sodium acetate (pH 5.5) buffer and injected over the activated biosensor surface. […] The response was monitored as a function of time (sensorgram) at 25° C.
# [2] = target: T2, FGF21; experiment: Co-immunoprecipitation of FGF with FLAG-tagged sKL on anti-FLAG beads; assay type: binding
# Description: To study the interaction between FLAG-tagged sKL and different FGF isoforms, co-immunoprecipitation studies were conducted. FLAG beads (A2220, Sigma-Aldrich) were used at 50 ul of 50% stock slurry per sample. Beads were washed 5× with activity buffer (50 mM Tris [pH 7.4], 200 mM NaCl, 0.01% Tween 20, Sigma-Aldrich). Bead spin-down assays were all performed for 2 minutes at 5000 g. Fifty microliters of a 50% slurry of beads per sample was resuspended in 1 ml of activity buffer in a 1.5-ml snap cap tube. One microgram of FLAG-tagged sKL or Carboxy-terminal bacterial alkaline phosphatase (BAPC; P7457, Sigma-Aldrich) was incubated with the beads for 1 hour on a bead rotator. Beads were then pelleted at 5000 g for 2 minutes and washed 5× with activity buffer. Beads were resuspended in 1 ml of activity buffer and samples with 500 ng of FGF. Beads were incubated for 1 hour on a tube rotator, and beads were pelleted and washed as before. One hundred microliters of I× Laemmli sample buffer (1610737, Bio-Rad) with 1.42 M 2-mercaptoethanol was added, and samples were boiled for 5 minutes and analyzed using sodium dodecylsulfate-polyacrylamide gel electrophoresis (SDS-PAGE) and Western blotting, as described below herein.
# The sample (20 μl) was loaded onto Mini-PROTEAN TGX Precast Gel 4-20% for experiments with <9 samples (4568094, Bio-Rad) or Criterion TGX Precast Gel 4-20% (5678094, Bio-Rad) for experiments with >9 samples. Gels were run in 1× Tris/Glycine/SDS buffer (1610732, Bio-Rad) at 150 V and stopped when the sample dye reached the end of the gel. Gels were removed and electrotransferred via a semi-dry cassette (1703940, Bio-Rad) in I× Tris/Glycine buffer (1610734, Bio-Rad) with 20% methanol. Gels were transferred onto polyvinylidene diflouride membranes (IPVH00010, Millipore) at 20 V for 1 hour. Membranes were then blocked in 5% dried milk with 0.5% Tween 20 diluted in Tris-buffered saline (TBST; pH 7.5) for 1 hour and probed with antibodies against specific antigens at 1:1000 in TBST with 5% dried milk. Blots were washed 3× for 5 minutes in TBST and probed with HRP-coupled secondary antibodies against specific species at 1:10,000 in TBST with 5% dried milk. Membranes were imaged on the SRX-101A X-ray film developer (Konica Minolta).
Molecule,Kd [1] [nM],ka ([1]; 25° C.),kd ([1]; 25° C.),FGF21 co-precipitation with immobilized FLAG-sKL [2],FGF21 co-precipitation with immobilized FLAG-sKL ([2]; listed as FLAG-sKL)
B1,320,1.2 × 10^3 1/MS,0.04 1/S,,
B2,,,,did not bind,does not binds FGF21

# — patent US20240384250A1, “FIBROBLAST GROWTH FACTOR 23 MODULATING COMPOUNDS” (THE UAB RESEARCH FOUNDATION, priority 2021, published 2024)
